Consider one molecule from PMC11107369, “The Plasmodium vivax MSP1P-19 is involved in binding of reticulocytes through interactions with the membrane proteins band3 and CD71” (The Journal of Biological Chemistry, 2024).

In this assay the target is T1, Recombinant CD71-ECD immobilised on the CM5 chip (SPR) (human, UniProt P02786 89-760).
T1 construct: Human transferrin receptor protein 1 (CD71), extracellular domain; source: recombinant
The experiment in a line: SPR; BIAcore S200; CD71-ECD coupled to CM5 chip (EDC/NHS, 10 mM NaAc pH 4.5); analyte PvMSP1P-19 6.25, 12.5, 25, 50 μM at 30 μl/min; 1:1 Langmuir model; apparent KD. The note with it: both partners purified. In general terms: In SPR one partner is held on a chip, and binding of the other changes the refractive index at the surface.

T1 sequence (P02786 89-760): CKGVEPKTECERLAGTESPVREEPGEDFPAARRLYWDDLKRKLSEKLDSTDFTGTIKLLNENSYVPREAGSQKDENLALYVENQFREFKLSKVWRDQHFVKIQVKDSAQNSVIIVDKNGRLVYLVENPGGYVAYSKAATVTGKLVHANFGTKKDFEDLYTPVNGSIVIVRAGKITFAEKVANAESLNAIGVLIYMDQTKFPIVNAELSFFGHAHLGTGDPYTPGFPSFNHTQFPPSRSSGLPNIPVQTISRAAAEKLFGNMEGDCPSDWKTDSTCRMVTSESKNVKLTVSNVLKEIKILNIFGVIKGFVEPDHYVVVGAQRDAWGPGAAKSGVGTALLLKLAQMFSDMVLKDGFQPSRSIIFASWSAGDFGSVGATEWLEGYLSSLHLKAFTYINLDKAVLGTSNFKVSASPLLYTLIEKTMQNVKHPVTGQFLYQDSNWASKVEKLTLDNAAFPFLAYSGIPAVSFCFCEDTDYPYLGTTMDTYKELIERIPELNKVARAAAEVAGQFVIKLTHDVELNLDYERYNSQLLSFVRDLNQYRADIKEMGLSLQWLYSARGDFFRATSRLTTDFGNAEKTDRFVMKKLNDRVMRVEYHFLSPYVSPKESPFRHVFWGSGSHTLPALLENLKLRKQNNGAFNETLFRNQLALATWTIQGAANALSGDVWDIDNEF

B1: Plasmodium vivax merozoite surface protein 1 paralog, 19-kDa C-terminal region (PvMSP1P-19), Trx-His-Flag-tagged (domain or fragment)
chain: DRVEKNCRNRKCPLNSFCFIQTINEECLCLLNYSMVGEKCILNEQNSCAVKNGGCDLKATCELKKNRVNCICPKGTKPMHEGVVCS
notes: P. vivax merozoite surface protein 1 paralog (PvMSP1P, 1854 aa), PlasmoDB PVX_099975, aa 1749-1834 (two EGF-like domains); Migrates at ~36 kDa; also called Trx-His-PvMSP1P-19; His-MSP1P-19; source: E. coli BL21 (DE3) and SHuffle T7 E. coli, pET32a, soluble, purified by Talen Biotech
On to B1, for which the Kd amounted to 35.5 µM.
